Here are results for one molecule from US20130251707A1.

The Kd is a measure of binding affinity in units of concentration. Low readings indicate a tighter complex, high ones a looser complex. In general, koff refers to the rate constant with which the complex falls apart. High values mean a short-lived complex, low ones a long-lived complex. As usually defined, the kon is the second-order rate constant of association.

The target of this experiment is human TNFR1-Fc (human) (UniProt P19438). In words: quartz crystal microbalance, TNFR1-Fc immobilized.
human TNFR1-Fc (human), sequence (P19438 29-211 limits assumed): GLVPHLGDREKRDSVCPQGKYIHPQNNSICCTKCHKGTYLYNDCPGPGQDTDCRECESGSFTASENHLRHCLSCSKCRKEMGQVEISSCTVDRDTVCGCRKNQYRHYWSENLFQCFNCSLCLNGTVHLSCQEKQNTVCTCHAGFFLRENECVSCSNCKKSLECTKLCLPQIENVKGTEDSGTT

B1: scFv IZI-06.1 (scFv, V domains shown, part only)
VH: QVQLVQSGAEVKKPGSSVKVSCKASGYTFTDFYINWVRQAPGQGLEWIGEIYPYSGHAYYNEKFKARVTITADKSTSTAYMELSSLRSEDTAVYYCARWDFLDYWGQGTTVTVSS
VL: DIVMTQSPLSLPVTPGEPASISCRSSQSLLHSNGNTYLHWYLQKPGQSPQLLIYTVSNRFSGVPDRFSGSGSGTDFTLKISRVEAEDVGVYYCSQSTHVPYTFGGGTKVEIKR
modifications: linker and tags not stated
The molecule B1 had an equilibrium dissociation constant (Kd) of 2.2 nM; a fold reduced affinity (against ATROSAB and H398) of 10 fold; a dissociation rate constant (koff) of 0.00076 s⁻¹; a kon of 350000 M⁻¹ s⁻¹.
